Measurements as given in US20180360932A1 (OPKO BIOLOGICS, published 2018).

Tests used:
[1] = molecular target: Factor X (FX) (UniProt P00742); test: cell-based or functional assay
[2] = molecular target: NovoSeven (commercial recombinant human FVIIa) (human) (UniProt P08709); test: cell-based or functional assay
[3] = molecular target: MOD-5014 (FVIIa-CTP3, activated Factor VII-CTP-CTP-CTP) (human) (UniProt P08709); test: cell-based or functional assay
[4] = molecular target: T1, Tissue factor (TF), P13726
T1 chain: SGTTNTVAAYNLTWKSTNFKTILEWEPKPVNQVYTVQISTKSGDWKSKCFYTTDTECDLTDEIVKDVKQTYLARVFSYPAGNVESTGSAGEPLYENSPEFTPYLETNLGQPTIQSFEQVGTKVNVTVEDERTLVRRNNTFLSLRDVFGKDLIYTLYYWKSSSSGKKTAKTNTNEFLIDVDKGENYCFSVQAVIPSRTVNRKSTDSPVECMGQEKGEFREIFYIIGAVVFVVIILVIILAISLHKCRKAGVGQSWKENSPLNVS

[5] = molecular target: Factor X (FX), P00742
Sequence of Factor X (FX), P00742 (P00742 whole entry, looked up): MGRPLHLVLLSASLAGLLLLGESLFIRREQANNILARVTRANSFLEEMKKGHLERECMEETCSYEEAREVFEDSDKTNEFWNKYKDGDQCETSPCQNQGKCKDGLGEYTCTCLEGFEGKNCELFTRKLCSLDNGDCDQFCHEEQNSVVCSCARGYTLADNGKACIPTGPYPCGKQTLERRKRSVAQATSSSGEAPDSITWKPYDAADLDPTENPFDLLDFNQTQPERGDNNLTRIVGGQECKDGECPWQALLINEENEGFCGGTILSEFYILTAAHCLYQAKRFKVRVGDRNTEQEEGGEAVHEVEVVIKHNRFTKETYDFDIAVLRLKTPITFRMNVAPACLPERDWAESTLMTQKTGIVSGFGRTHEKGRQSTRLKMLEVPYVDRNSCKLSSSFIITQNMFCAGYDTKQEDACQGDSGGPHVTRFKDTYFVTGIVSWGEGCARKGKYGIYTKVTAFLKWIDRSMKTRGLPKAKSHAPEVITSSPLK

Sequence of Factor X (FX) (P00742 41-488 limits assumed): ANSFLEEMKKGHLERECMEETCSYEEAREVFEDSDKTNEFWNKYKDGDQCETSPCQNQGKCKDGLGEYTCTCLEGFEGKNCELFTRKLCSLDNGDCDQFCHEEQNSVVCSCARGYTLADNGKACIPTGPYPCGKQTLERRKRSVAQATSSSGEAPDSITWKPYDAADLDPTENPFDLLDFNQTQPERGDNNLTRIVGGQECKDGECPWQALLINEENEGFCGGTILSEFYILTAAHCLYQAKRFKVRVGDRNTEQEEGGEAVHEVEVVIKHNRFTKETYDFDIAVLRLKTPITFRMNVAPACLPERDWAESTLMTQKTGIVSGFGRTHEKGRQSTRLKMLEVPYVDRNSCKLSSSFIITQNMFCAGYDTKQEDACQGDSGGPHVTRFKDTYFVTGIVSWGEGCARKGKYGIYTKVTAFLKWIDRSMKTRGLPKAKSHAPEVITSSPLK

Molecule: Recombinant human FVIIa (NovoSeven) (from UniProt P08709 61-212; P08709 213-466) (enzyme)
- EC50 of Factor X activation (BIOPHEN FVII chromogenic assay) [1]: 0.38 ng/mL

Molecule: Tissue Factor Pathway Inhibitor (TFPI) (from UniProt P10646 29-304)
- % Inhibition of clotting activity, TFPI 0.625 ng/mL [2]: 25%
- % Inhibition of clotting activity, TFPI 6.25 ng/mL [2]: 24%
- % Inhibition of clotting activity, TFPI 62.5 ng/mL [2]: 38%
- % Inhibition of clotting activity, TFPI 625 ng/mL [2]: 87%
- % Inhibition of clotting activity, TFPI 1250 ng/mL [2]: 96%
- Activity (mU/mL), clotting assay, TFPI 0 ng/mL (no inhibitor) [2]: 72.3 mU/mL
- Activity (mU/mL), clotting assay, TFPI 0.625 ng/mL [2]: 54.5 mU/mL
- Activity (mU/mL), clotting assay, TFPI 6.25 ng/mL [2]: 55.3 mU/mL
- Activity (mU/mL), clotting assay, TFPI 62.5 ng/mL [2]: 45 mU/mL
- Activity (mU/mL), clotting assay, TFPI 625 ng/mL [2]: 9.5 mU/mL
- Activity (mU/mL), clotting assay, TFPI 1250 ng/mL [2]: 2.9 mU/mL
- FX activation by NovoSeven (0.7 ng/ml) + 1 U/µl heparin, TFPI 0.002048 ng/ml [2]: 1.33
- FX activation by NovoSeven (0.7 ng/ml) + 1 U/µl heparin, TFPI 0.010240 ng/ml [2]: 1.3
- FX activation by NovoSeven (0.7 ng/ml) + 1 U/µl heparin, TFPI 0.051200 ng/ml [2]: 1.37
- FX activation by NovoSeven (0.7 ng/ml) + 1 U/µl heparin, TFPI 1.28 ng/ml [2]: 1.31
- FX activation by NovoSeven (0.7 ng/ml) + 1 U/µl heparin, TFPI 6.40 ng/ml [2]: 1.21
- FX activation by NovoSeven (0.7 ng/ml) + 1 U/µl heparin, TFPI 32.00 ng/ml [2]: 1.01
- FX activation by NovoSeven (0.7 ng/ml) + 1 U/µl heparin, TFPI 160.00 ng/ml [2]: 0.764
- FX activation by NovoSeven (0.7 ng/ml) + 1 U/µl heparin, TFPI 800.00 ng/ml [2]: 0.409
- FX activation by NovoSeven (0.7 ng/ml) + 1 U/µl heparin, TFPI 4000.00 ng/ml [2]: 0.241
- FX activation by NovoSeven (0.7 ng/ml) + 1 U/µl heparin, TFPI 20000.00 ng/ml [2]: 0.222
- FX activation by NovoSeven (0.7 ng/ml), Control [2]: 1.47
- FX activation by NovoSeven (4 ng/ml), Control (no TFPI) [2]: 1.66
- FX activation by NovoSeven (4 ng/ml), TFPI 0.002048 ng/ml [2]: 1.72
- FX activation by NovoSeven (4 ng/ml), TFPI 0.010240 ng/ml [2]: 1.7
- FX activation by NovoSeven (4 ng/ml), TFPI 0.051200 ng/ml [2]: 1.73
- FX activation by NovoSeven (4 ng/ml), TFPI 0.2560 ng/ml [2]: 1.7
- FX activation by NovoSeven (4 ng/ml), TFPI 1.28 ng/ml [2]: 1.66
- FX activation by NovoSeven (4 ng/ml), TFPI 6.40 ng/ml [2]: 1.59
- FX activation by NovoSeven (4 ng/ml), TFPI 32.00 ng/ml [2]: 1.5
- FX activation by NovoSeven (4 ng/ml), TFPI 160.00 ng/ml [2]: 1.34
- FX activation by NovoSeven (4 ng/ml), TFPI 800.00 ng/ml [2]: 1.02
- FX activation by NovoSeven (4 ng/ml), TFPI 4000.00 ng/ml [2]: 0.406
- FX activation by NovoSeven (4 ng/ml), TFPI 20000.00 ng/ml [2]: 0.206
- O.D, FX activation by NovoSeven (0.64 ng/ml), Control (no TFPI) [2]: 1.51 O.D
- O.D, FX activation by NovoSeven (0.64 ng/ml), TFPI 0.002048 ng/ml [2]: 1.5 O.D
- O.D, FX activation by NovoSeven (0.64 ng/ml), TFPI 0.010240 ng/ml [2]: 1.51 O.D
- O.D, FX activation by NovoSeven (0.64 ng/ml), TFPI 0.051200 ng/ml [2]: 1.52 O.D
- O.D, FX activation by NovoSeven (0.64 ng/ml), TFPI 0.2560 ng/ml [2]: 1.43 O.D
- O.D, FX activation by NovoSeven (0.64 ng/ml), TFPI 1.28 ng/ml [2]: 1.47 O.D
- O.D, FX activation by NovoSeven (0.64 ng/ml), TFPI 6.40 ng/ml [2]: 1.42 O.D
- O.D, FX activation by NovoSeven (0.64 ng/ml), TFPI 32.00 ng/ml [2]: 1.38 O.D
- O.D, FX activation by NovoSeven (0.64 ng/ml), TFPI 160.00 ng/ml [2]: 1.34 O.D
- O.D, FX activation by NovoSeven (0.64 ng/ml), TFPI 800.00 ng/ml [2]: 1.04 O.D
- O.D, FX activation by NovoSeven (0.64 ng/ml), TFPI 4000.00 ng/ml [2]: 0.83 O.D
- O.D, FX activation by NovoSeven (0.64 ng/ml), TFPI 20000.00 ng/ml [2]: 0.429 O.D
- % Inhibition of clotting activity, TFPI 0.625 ng/mL [3]: 15%
- % Inhibition of clotting activity, TFPI 6.25 ng/mL [3]: 15%
- % Inhibition of clotting activity, TFPI 62.5 ng/mL [3]: 29%
- % Inhibition of clotting activity, TFPI 625 ng/mL [3]: 80%
- % Inhibition of clotting activity, TFPI 1250 ng/mL [3]: 89%
- Activity (mU/mL), clotting assay, TFPI 0 ng/mL (no inhibitor) [3]: 66.8 mU/mL
- Activity (mU/mL), clotting assay, TFPI 0.625 ng/mL [3]: 56.7 mU/mL
- Activity (mU/mL), clotting assay, TFPI 6.25 ng/mL [3]: 56.7 mU/mL
- Activity (mU/mL), clotting assay, TFPI 62.5 ng/mL [3]: 47.4 mU/mL
- Activity (mU/mL), clotting assay, TFPI 625 ng/mL [3]: 13.2 mU/mL
- Activity (mU/mL), clotting assay, TFPI 1250 ng/mL [3]: 7.3 mU/mL
- FX activation by MOD-5014 (0.7 ng/ml) + 1 U/µl heparin, TFPI 0.002048 ng/ml [3]: 1.27
- FX activation by MOD-5014 (0.7 ng/ml) + 1 U/µl heparin, TFPI 0.010240 ng/ml [3]: 1.29
- FX activation by MOD-5014 (0.7 ng/ml) + 1 U/µl heparin, TFPI 0.051200 ng/ml [3]: 1.35
- FX activation by MOD-5014 (0.7 ng/ml) + 1 U/µl heparin, TFPI 1.28 ng/ml [3]: 1.26
- FX activation by MOD-5014 (0.7 ng/ml) + 1 U/µl heparin, TFPI 6.40 ng/ml [3]: 1.16
- FX activation by MOD-5014 (0.7 ng/ml) + 1 U/µl heparin, TFPI 32.00 ng/ml [3]: 0.915
- FX activation by MOD-5014 (0.7 ng/ml) + 1 U/µl heparin, TFPI 160.00 ng/ml [3]: 0.539
- FX activation by MOD-5014 (0.7 ng/ml) + 1 U/µl heparin, TFPI 800.00 ng/ml [3]: 0.32
- FX activation by MOD-5014 (0.7 ng/ml) + 1 U/µl heparin, TFPI 4000.00 ng/ml [3]: 0.115
- FX activation by MOD-5014 (0.7 ng/ml) + 1 U/µl heparin, TFPI 20000.00 ng/ml [3]: 0.15
- FX activation by MOD-5014 (0.7 ng/ml), Control [3]: 1.37
- FX activation by MOD-5014 (4 ng/ml), Control (no TFPI) [3]: 1.58
- FX activation by MOD-5014 (4 ng/ml), TFPI 0.002048 ng/ml [3]: 1.65
- FX activation by MOD-5014 (4 ng/ml), TFPI 0.010240 ng/ml [3]: 1.64
- FX activation by MOD-5014 (4 ng/ml), TFPI 0.051200 ng/ml [3]: 1.6
- FX activation by MOD-5014 (4 ng/ml), TFPI 0.2560 ng/ml [3]: 1.62
- FX activation by MOD-5014 (4 ng/ml), TFPI 1.28 ng/ml [3]: 1.56
- FX activation by MOD-5014 (4 ng/ml), TFPI 6.40 ng/ml [3]: 1.54
- FX activation by MOD-5014 (4 ng/ml), TFPI 32.00 ng/ml [3]: 1.47
- FX activation by MOD-5014 (4 ng/ml), TFPI 160.00 ng/ml [3]: 1.14
- FX activation by MOD-5014 (4 ng/ml), TFPI 800.00 ng/ml [3]: 0.836
- FX activation by MOD-5014 (4 ng/ml), TFPI 4000.00 ng/ml [3]: 0.38
- FX activation by MOD-5014 (4 ng/ml), TFPI 20000.00 ng/ml [3]: 0.17
- O.D, FX activation by MOD-5014 (0.69 ng/ml), Control (no TFPI) [3]: 1.51 O.D
- O.D, FX activation by MOD-5014 (0.69 ng/ml), TFPI 0.002048 ng/ml [3]: 1.48 O.D
- O.D, FX activation by MOD-5014 (0.69 ng/ml), TFPI 0.010240 ng/ml [3]: 1.45 O.D
- O.D, FX activation by MOD-5014 (0.69 ng/ml), TFPI 0.051200 ng/ml [3]: 1.45 O.D
- O.D, FX activation by MOD-5014 (0.69 ng/ml), TFPI 0.2560 ng/ml [3]: 1.46 O.D
- O.D, FX activation by MOD-5014 (0.69 ng/ml), TFPI 1.28 ng/ml [3]: 1.39 O.D
- O.D, FX activation by MOD-5014 (0.69 ng/ml), TFPI 6.40 ng/ml [3]: 1.38 O.D
- O.D, FX activation by MOD-5014 (0.69 ng/ml), TFPI 32.00 ng/ml [3]: 1.36 O.D
- O.D, FX activation by MOD-5014 (0.69 ng/ml), TFPI 160.00 ng/ml [3]: 1.11 O.D
- O.D, FX activation by MOD-5014 (0.69 ng/ml), TFPI 800.00 ng/ml [3]: 1.01 O.D
- O.D, FX activation by MOD-5014 (0.69 ng/ml), TFPI 4000.00 ng/ml [3]: 0.691 O.D
- O.D, FX activation by MOD-5014 (0.69 ng/ml), TFPI 20000.00 ng/ml [3]: 0.346 O.D

B1: MOD-5014 (FVIIa-CTP3, activated Factor VII-CTP-CTP-CTP) (protein)
chain 1: ANAFLEELRPGSLERECKEEQCSFEEAREIFKDAERTKLFWISYSDGDQCASSPCQNGGSCKDQLQSYICFCLPAFEGRNCETHKDDQLICVNENGGCEQYCSDHTGTKRSCRCHEGYSLLADGVSCTPTVEYPCGKIPILEKRNASKPQGR
chain 2: IVGGKVCPKGECPWQVLLLVNGAQLCGGTLINTIWVVSAAHCFDKIKNWRNLIAVLGEHDLSEHDGDEQSRRVAQVIIPSTYVPGTTNHDIALLRLHQPVVLTDHVVPLCLPERTFSERTLAFVRFSLVSGWGQLLDRGATALELMVLNVPRLMTQDCLQQSRKVGDSPNITEYMFCAGYSDGSKDSCKGDSGGPHATHYRGTWYLTGIVSWGQGCATVGHFGVYTRVSQYIEWLQKLMRSEPRPGVLLRAPFPSSSSKAPPPSLPSPSRLPGPSDTPILPQSSSSKAPPPSLPSPSRLPGPSDTPILPQSSSSKAPPPSLPSPSRLPGPSDTPILPQ
- Vmax (rate of FX activation at saturation of TF with FVIIa) [4]: 1.3 nM FXa/min
- k2 (rate of Pefachrome FVIIa substrate cleavage by the VIIa/TF complex) (mol pNA/min/mol VIIa/TF) [4]: 357
- Vmax (rate of FX activation by lipid-bound FVIIa in the absence of TF) [5]: 0.115 nM FXa/min

B2: MOD-5000 (NovoSeven, commercial recombinant hFVIIa) (protein)
chain 1: B1 chain 1
chain 2: IVGGKVCPKGECPWQVLLLVNGAQLCGGTLINTIWVVSAAHCFDKIKNWRNLIAVLGEHDLSEHDGDEQSRRVAQVIIPSTYVPGTTNHDIALLRLHQPVVLTDHVVPLCLPERTFSERTLAFVRFSLVSGWGQLLDRGATALELMVLNVPRLMTQDCLQQSRKVGDSPNITEYMFCAGYSDGSKDSCKGDSGGPHATHYRGTWYLTGIVSWGQGCATVGHFGVYTRVSQYIEWLQKLMRSEPRPGVLLRAPFP
- Vmax (rate of FX activation by lipid-bound FVIIa in the absence of TF) [5]: 0.253 nM FXa/min
